This series can be described thus: soluble on expression in E. coli; label from the status in PepcDB or PDB records.
Turning to “RQGCEARRAHEHLIRLLLEQGKCPEDGWDESTLELFLHELAVMDSNNFLGNCGVGEREGRVASALVARRHYRFIHGIGRSGDISAVQPKAAGSSLLNKITNSLVLNVIKLAGVHSVASCFVVPMATGMSLTLCFLTLRHKRPKAKYIIWPRIDQKSCFKSMVTAGFEPVVIENVLEGDELRTDLKAVEAKIQELGPEHILCLHSTTACFAPRVPDRLEELAVICANYDIPHVVNNAYGLQSSKCMHLIQQGARVGRIDAFVQSLDKNFMVPVGGAIIAGFNEPFIQDISKMYPGRASASPSLDVLITLLSLGCSGYRKLLKERKEMFVYLSTQLKKLAEAHNERLLQTPHNPISLAMTLKTIDGHHDKAVTQLGSMLFTRQVSGARAVPLGNVQTVSGHTFRGFMSHADNYPCAYLNAAAAIGMKMQDVDLFIKRLDKCLNIVRKEQTRA”, the “soluble on expression in E. coli” value is recorded as “soluble”. Take “MNCIIAQSGGPTSVINASVYGLVKANKKLNLYENVYGGLNGIEGILNKKIINLSDLDELQLERFKNSPASGLGSCRYKLKPLSESEDEYLKLLDILNSLNIKAFFYVGGNDSMDTTAKLNAFAKAKNIDIKFFGIPKTIDNDLMHTDHTPGFGSAAKFISTAVLETYLDSKVYTNNGIFIIETMGRDTGWLAASGALATINGNKCADLVYLPERAFSVQSFLTDVARIFKEKKHVYIVASEGLKDENGKFLTETAPNDDSFGHAQLGGVGAYLKNLIIQASITHRVKSLELNTLQRCSMHASSKIDVNEAVMVGQAALEASINSEGGYMVAIRRDSSFPYKSSTFLIEADKIANNIKYFPSEWINEEGNNITEEGLLYLKPLISDFEDRDSLPLYHSFVLLEHHHHHH”: the “soluble on expression in E. coli” value is reported as “not soluble”. Regarding “MRIKPECALCITRQVVDVAKEITDDKSEQFKIIAWGIEKISEAYGESSVPSFMGTEIHRHIKKMSKNSDPYKNLKNVANEFALKYLNDVEKLLESDDELERLQNKVKLSIAGNVIDFGPYSTGVNIEKMVKDTLDGKLDVDFSKELLDELKNSKKVFYTCDNAGEIVFDLPLIKELKNYVEVVVSVKGSPILNDATLDDVKTAGIDKVTKVITSGTDAIGVRFEESSEEFINELNSSDFVIAKGMGNYESLTEYEEKHGQNSEKIPVYYILKAKCEPVAEHIGVSEGDNVLLRKEISKVLEHHHHHH”, the “soluble on expression in E. coli” value was “soluble”.

With “MITSPFERELKLLNEGELGIVQQLVESSNIGFIVDLELDGDYGWAVYKPELGEQPLWDFPPGLYKRERAAFVISEFLGWNIVPPTVIMHDAPAGVGSVQWFIENNGEHYFPLFDTRADLHPQFVRMAVFDLLCNNTDRKAGHVLLDGDHIWGIDHGLCFSVEPKLRTVIWDFAGCTIPDDLVTDVEQLLEDVPEELHQLLHPAEIDALQRRASRISRLPFLPQAKSHRQFPWPLVLEHHHHHH”, the “soluble on expression in E. coli” value is “soluble”. On to “GAMATGSRIGGGIDVPVPRHSVGVVIGRSGEMIKKIQNDAGVRIQFKQDDGTGPEKIAHIMGPPDRCEHAARIINDLLQSLRSGPPGPPGGPGMPPGGRGRGRGQG”, for which the “soluble on expression in E. coli” value is listed as “soluble”.

On to “MGSDKIHHHHHHMSRKDVVAGIRNEEGISTVLDLLKQSFGERFQTGQSFREQHAHTTTYLPAQLPDGVVFVESAEDVKTVVRTCAQHKVPMVPFGVGSSLEGQVNAAHGGISIDFTRMDKVLEVNAEDLDCTVQPGVTREALNTYLRDTGLFFPIDPGANASIGGMASTRASGTNAVRYGTMKDNVMALTVVTANGEEIRTAHRARKSSAGYDLTRLFVGAEGTLGVITSITLKLQGIPEKIGGGVCAFADVKSACDAVIMTIQMGIPVARIELLDAMQVRACNAYSNLSLPERPTLFLEFHGTEQTVALQAQQFAAIAEEYGAEDLRFTSDPQERAQLWKARHNAYWAGRALAPELAGLSTDVCVPISKLAECVAETQADIAETGLLAPIVGHVGDGNFHLLILFDDKDAENVDKVEAFMARLNERALAMDGTCTGEHGVGQGKMSYLEAELGGALDVMRQVKRGLDPDNLFNPGKIFRL”, for which the “soluble on expression in E. coli” value is reported as “not soluble”. The result for “MTEYGGGEVYLLDLDSVVDGSALRMISSGGLRGRVLIHSALVDYLYSEAKRGRSAGYAGLAELSRLMDAGVGDVEIVVVEDDARVQPRDEGELKSVLRRYALRVGATLVTSDPVQARAARALGVSVLFTGRSRTGRIRIEEFFDGRTMSVHLKEGVPPLAKVGKPGSWMFVSLSDKPLTRAEIEEIAREIIEASALEEEGFIEIDRSGSTIVQLKDYRIVITRPPLSDGWEVTAVKPVAKLRLEDYSLPEKLYNRLLERAEGILIAGAPGMGKTTFAQALATFYAEQGKVVKTIESPRDMRLPPNVTQYSKNYADLGELHDILLLSRPDYTVYDELRSDEDFQLYVDLRLAGIGMIGVVHATTPIDAVQRFLRRVELGMIPSIIDTVIFIDSGEVSKVYELSITVKLPTGLREAELSRPVVEVRDFITGELEYEIYTFGEQTMVVPVRERRGRGEAAILGAIRKLLPDAEVEVRDETLIVRLPPRSSRVTARRLKRAKKLAEKHGYDIRFMPL” reads “soluble”; that for “MGSDKIHHHHHHMLTYDLTKTDGPLYKCLYECIKNDISQGKLSSGEKMPSKRTLAKNLGVSTITVENAYDQLIGEGYMFARPKKGYFIADVSDIRVIKAPVQKELSIKLPPEQDESIFDFSSNRTDSGNFPFSIWAKLMRETISLREQELLSVSPCGGVRELREAIASHLSSFRGMNVDPDQIIVGAGTEYLYGLLVKLLGTDKVYCVEDPGYKKISQIYECNNAKCLPVQMDEQGISVELIKKANAQIAHISPTHHFPTGITMPVNRRYELLAWANESSDRYIIEDDYDSEFRMNGHPIPPILSIDACEKVIYINTFSKSLTSTIRISYMVLPEHLANEFYRRLSFYSCTVSTFEQYTLARFISEGYFEKHINRMRLHYGRKRQSVLSSIKGCFTEKECRVIENDSGLHFIIQFDTNLPDKTVEERLLKKGIKLQAITHFNLIKPKEDRHQFIINYSNIDADRIMDELLIIKDTIL”, “not soluble”; that for “SNKGGGSGGGSGGGSGPTAAAAAAALQKQKALLQRVETDITSVVDNFTQIVNVSRVSDPPVKNSQETYMMEMRASRMATQVLLKDFLMSLWSVVNLLPHQWWQVQAADSLLKLVSELKQTAIFSGFASLNDHVEQRIEEFDQEAEKTNRLLARIADDASANLKELESHYYSSAQRLTLDI”, “soluble”. The result for “MLTEQEKDIIKQTVPLLKEKGTEITSIFYPKMFKAHPELLNMFNQTNQKRGMQSSALAQAVMAAAVNIDNLSVIKPVIMPVAYKHCALQVYAEHYPIVGKNLLKAIQDVTGLEENDPVIQAWAKAYGVIADVFIQIEKEIYDQMMWIGFKPFKITNIKQESEDIKSFTVETEEYDFSEFTPGQYITVDVSSDKLPYRAKRHYSIVSGEKNHLTFGVKRDVTTEHEGEVSTILHDEIKEGDMINLAAPVGGFVLENTTEPQLFLGSGIGVTPLVAMYEAASAKGLDTQMVQVAENEQHLPFKDNFNSIASHHDNAKLYTHLKDKQGYIGAEELQVFLANKPEIYICGGTKFLQSMIEALKSLNYDMDRVHYETFIPRLSVAV” reads “not soluble”; that for “MSLCQLLGMNCNTPTDIMFSFEGFRRRGGITDHHADGFGIGFFEGKGVRLFHDDKPSVNSPVADLVRAYQIKSENVIAHIRKASQGQTSLANTHPFMREMWGGYWLFAHNGHLIDFFPEQGEFFHPVGTTDSERAFCHILNRLRTRFAARPDDDTLFDAIAGLTHEIRKFGLFNFMLSDGIALFAHASTLLHYIVRQAPFGKARLLDDDVMVDFAEVTTPSDRVAVIATLPLTRDESWSQLAVDELVMFREGNIVRHDRPENPVYMSAEEGLEIARAEGGSHHHHHH”, “soluble”; that for “MGSDKIHHHHHHMTEITTLSQFLTTANTQFQVYDLGRRVQHIDALAFHQIESLLAPYPYPIQGHAQLGLVFWQQSAQPYIWFLKLPLDEQGLLSPAPRSQFIQMILDALGRDLTQELTEAQQEQFANHPFSFKPNQHKLALFNALVRQQLGQPASSQYEFAAQYLSEQAVIGESSAVENESHSWEQLGLQGIADVCVRAQSLDNMDSLIRSFDFSPLPVHAALCQCLEHLPLEPSLAEKIYLLFEQASNEHKASYLAALASSPSLSIKAIAHLAQHNLLDANHLVTIAARNWQALKDDSCRKSYLEALALQEQGFFNQVFADIVAIPSLRQALLLDLRNPERSNILSIAIGGLFKAAQS”, “not soluble”. As to “MGSDKIHHHHHHMKLPTNSILISLKIGIVSDGQYGERAFEQIRRRFPTEWILLPYPSSPVVDEIELTIPPCDLYISYLRHPDIAMELIRTGIPALLGINLGPGFIAQAHEFNPAVIGPETMCSVLPNTKFCQVNEYAKVFGRPVFYLVMDGDRIVWCKTIRGSPCGSTDAAASEISGQILDQEALSRFALSICHNCRAPRFGKTCDKEKAGIIHLEELMRALKGVNPKKWEELIQVLEKIGCSFPNE”, the “soluble on expression in E. coli” value was “not soluble”.

The record behind these values is the DeepSol protein solubility set.
